Consider three molecules from US20050153887A1.

Holding throughout (experiment): cell-based or functional assay
In test [1] the target is Dishevelled (overexpressed in 293T cells for the reporter assay).
Test [2] concerns the target Ryk (DNA construct expressing Ryk, transfected into 293T cells for the reporter assays).
Test [3] has as its target endogenous Ryk of mouse (mouse) (UniProt Q01887).
Test [4] concerns the target endogenous Ryk in 293T cells (human) (UniProt P34925).
Sequence of UniProt P34925 (P34925 other isoform, or with tags, fused parts or gaps limits assumed): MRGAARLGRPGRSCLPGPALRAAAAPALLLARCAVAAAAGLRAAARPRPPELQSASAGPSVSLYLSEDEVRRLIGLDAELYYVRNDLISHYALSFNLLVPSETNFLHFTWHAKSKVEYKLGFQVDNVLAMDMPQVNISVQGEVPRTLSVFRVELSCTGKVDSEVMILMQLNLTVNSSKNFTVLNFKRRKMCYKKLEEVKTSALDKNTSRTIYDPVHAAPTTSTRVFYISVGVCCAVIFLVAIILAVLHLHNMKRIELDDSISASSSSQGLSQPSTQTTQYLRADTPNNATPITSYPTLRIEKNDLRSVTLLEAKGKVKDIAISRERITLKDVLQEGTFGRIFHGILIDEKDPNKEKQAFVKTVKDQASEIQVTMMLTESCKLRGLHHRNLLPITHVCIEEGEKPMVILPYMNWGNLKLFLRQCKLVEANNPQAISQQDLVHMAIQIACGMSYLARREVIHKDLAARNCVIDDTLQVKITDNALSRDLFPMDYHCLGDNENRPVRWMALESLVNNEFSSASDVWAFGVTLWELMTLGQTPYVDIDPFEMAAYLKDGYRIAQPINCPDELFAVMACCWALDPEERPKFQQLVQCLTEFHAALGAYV

Sequence of UniProt Q01887 (Q01887 35-594 limits assumed): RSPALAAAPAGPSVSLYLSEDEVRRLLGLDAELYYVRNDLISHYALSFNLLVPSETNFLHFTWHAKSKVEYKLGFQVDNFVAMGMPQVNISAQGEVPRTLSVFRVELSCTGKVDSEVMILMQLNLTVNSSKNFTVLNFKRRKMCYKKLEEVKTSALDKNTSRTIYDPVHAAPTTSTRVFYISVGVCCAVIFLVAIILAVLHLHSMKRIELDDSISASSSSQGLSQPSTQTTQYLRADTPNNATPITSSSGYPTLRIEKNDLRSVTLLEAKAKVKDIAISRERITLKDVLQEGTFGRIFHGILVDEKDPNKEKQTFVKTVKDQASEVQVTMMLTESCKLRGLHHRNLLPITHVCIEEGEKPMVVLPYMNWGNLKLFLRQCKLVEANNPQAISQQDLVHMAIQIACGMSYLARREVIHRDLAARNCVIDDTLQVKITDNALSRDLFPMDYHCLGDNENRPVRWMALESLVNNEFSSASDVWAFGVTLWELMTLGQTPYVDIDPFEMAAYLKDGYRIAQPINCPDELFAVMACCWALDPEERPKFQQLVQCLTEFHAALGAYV

Take “Ryk (DNA construct expressing Ryk, transfected into 293T cells for the reporter assays) (receptor)”: the activation of the TCF-luciferase reporter on co-expression of Ryk with Dishevelled (Dishevelled alone about 15-fold) in test [1] was determined as 25 fold.

For “Wnt3a (Wnt3a conditioned medium) (ligand)”, the activation of the TCF-luciferase reporter in 293T cells transfected with Ryk and treated with Wnt3a conditioned medium in test [2] worked out at 5 fold. For the same molecule, in test [3], the average length of neurites of DRG explants in Wnt3a conditioned medium, Ryk siRNA mice against wild type is 2 fold.

B1: Wnt-1 (cotransfected into 293T cells for the reporter assay) (ligand, UniProt P04628 28-370, looked up, species assumed)
Proto-oncogene Wnt-1: ANSSGRWWGIVNVASSTNLLTDSKSLQLVLEPSLQLLSRKQRRLIRQNPGILHSVSGGLQSAVRECKWQFRNRRWNCPTAPGPHLFGKIVNRGCRETAFIFAITSAGVTHSVARSCSEGSIESCTCDYRRRGPGGPDWHWGGCSDNIDFGRLFGREFVDSGEKGRDLRFLMNLHNNEAGRTTVFSEMRQECKCHGMSGSCTVRTCWMRLPTLRAVGDVLRDRFDGASRVLYGNRGSNRASRAELLRLEPEDPAHKPPSPHDLVYFEKSPNFCTYSGRLGTAGTAGRACNSSSPALDGCELLCCGRGHRTRTQRVTERCNCTFHWCCHVSCRNCTHTRVLHECL
For the molecule B1, in test [4], the activation of the TCF-luciferase reporter in wild type 293T cells after Wnt stimulation was 25 fold and the inhibition of TCF-driven transcription induced by Wnt-1 in Ryk siRNA-containing 293T cells was found to be 12 fold.
